# From US20250136709A1 (DEVELOPMENT CENTER FOR BIOTECHNOLOGY, published 2025)
# Where two headings read alike, the source gives them in different places.
# Columns and labels:
# [1] = target: mCD73hF1 (mouse; human) (UniProt Q61503); assay: ELISA, antibody titrated; panel mCD73 hF1
# [2] = target: mCD73hF2 (mouse; human) (UniProt Q61503); assay: ELISA, antibody titrated; panel mCD73 hF2
# [3] = target: mCD73hF3 (mouse; human) (UniProt Q61503); assay: ELISA, antibody titrated; panel mCD73 hF3
# [4] = target: mCD73hF1 (mouse; human) (UniProt Q61503); assay: ELISA, antibody titrated; right panel mCD73 hF1
# [5] = target: T1, mouse CD73 (mouse, UniProt Q61503 29-551, limits assumed); assay: ELISA, antibody titrated; left panel mCD73
# T1 construct: Expressed in F293 cells and used in ELISA
# T1 sequence (looked up): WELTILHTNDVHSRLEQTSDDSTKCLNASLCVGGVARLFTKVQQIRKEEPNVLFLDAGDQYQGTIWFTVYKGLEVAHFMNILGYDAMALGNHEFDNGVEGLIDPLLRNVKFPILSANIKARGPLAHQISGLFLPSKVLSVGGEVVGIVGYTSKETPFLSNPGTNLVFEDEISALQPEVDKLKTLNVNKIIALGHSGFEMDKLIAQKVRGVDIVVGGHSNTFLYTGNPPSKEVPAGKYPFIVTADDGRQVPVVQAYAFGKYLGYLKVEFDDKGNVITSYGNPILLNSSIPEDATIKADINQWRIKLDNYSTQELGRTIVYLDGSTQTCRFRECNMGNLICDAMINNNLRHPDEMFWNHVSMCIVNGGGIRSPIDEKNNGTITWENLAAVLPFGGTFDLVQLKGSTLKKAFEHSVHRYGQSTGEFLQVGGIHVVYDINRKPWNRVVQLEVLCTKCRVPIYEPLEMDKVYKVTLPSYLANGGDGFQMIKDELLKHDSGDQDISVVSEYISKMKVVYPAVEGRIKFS
# Source text: The binding affinities of the above four mutated antibodies, 10H5 antibody, Oleclumab, and IgG to mouse CD73 and mouse CD73 hF1 were respectively analyzed by using ELISA assay.
# [6] = target: T2, human CD73 (human, UniProt P21589 27-549); assay: Biacore SPR
# T2 construct: the antigen of the Biacore assay is only called human CD73 antigen; also called human CD73 antigen; Recombinant Human CD73-6xHis
# T2 sequence: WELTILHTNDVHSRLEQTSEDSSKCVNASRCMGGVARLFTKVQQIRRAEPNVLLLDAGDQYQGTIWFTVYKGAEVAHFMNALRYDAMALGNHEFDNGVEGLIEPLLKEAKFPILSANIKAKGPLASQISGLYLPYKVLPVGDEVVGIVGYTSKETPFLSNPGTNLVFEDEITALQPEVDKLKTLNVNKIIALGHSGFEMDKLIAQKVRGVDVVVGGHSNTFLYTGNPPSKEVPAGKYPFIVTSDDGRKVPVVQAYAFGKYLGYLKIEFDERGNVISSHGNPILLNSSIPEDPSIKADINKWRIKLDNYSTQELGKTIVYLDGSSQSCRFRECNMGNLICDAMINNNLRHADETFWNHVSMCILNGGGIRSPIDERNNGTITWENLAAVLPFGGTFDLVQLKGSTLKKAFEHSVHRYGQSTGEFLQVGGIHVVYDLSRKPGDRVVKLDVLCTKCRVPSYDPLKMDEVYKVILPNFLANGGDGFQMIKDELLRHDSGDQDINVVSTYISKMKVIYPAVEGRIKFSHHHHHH
# [7] = target: T3, human CD73 on cells (MDA-MB-231, Calu-1, KLM-1, human CD4+ T-cells) (human, UniProt P21589 27-549); assay: cell-based or functional assay
# T3 sequence: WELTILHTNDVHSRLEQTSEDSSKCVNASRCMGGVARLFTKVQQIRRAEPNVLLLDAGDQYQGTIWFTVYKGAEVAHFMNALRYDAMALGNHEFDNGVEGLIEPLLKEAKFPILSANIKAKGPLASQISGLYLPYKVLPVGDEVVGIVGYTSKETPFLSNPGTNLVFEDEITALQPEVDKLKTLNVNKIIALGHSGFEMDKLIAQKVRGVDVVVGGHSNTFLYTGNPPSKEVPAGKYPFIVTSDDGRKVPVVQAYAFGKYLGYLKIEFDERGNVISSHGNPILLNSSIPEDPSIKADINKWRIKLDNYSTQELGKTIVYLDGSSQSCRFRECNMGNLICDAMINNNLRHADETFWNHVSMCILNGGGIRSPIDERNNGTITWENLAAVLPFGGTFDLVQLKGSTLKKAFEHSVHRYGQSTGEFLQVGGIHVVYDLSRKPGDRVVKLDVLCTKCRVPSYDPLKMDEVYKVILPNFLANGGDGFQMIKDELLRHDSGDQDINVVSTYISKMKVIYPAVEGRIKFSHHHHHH
# [8] = target: T2, human CD73; assay: Biacore SPR; remark: listed apart in the source
# [9] = target: T2, human CD73; assay: Biacore SPR; remark: listed apart in the source
# [10] = target: T2, human CD73; assay: Biacore SPR; remark: listed apart in the source
# [11] = target: human CD73 on cells (MDA-MB-231, Calu-1, KLM-1, human CD4+ T-cells) (human) (UniProt P21589); assay: cell-based or functional assay
# [12] = target: T1, mouse CD73; assay: ELISA, antibody titrated; panel mCD73
# [13] = target: T4, mCD73hF4 (human; mouse, UniProt Q61503 307-551, limits assumed); assay: ELISA, antibody titrated; panel mCD73 hF4
# T4 construct: Mouse-human domain swapping protein, expressed in F293 cells
# T4 sequence: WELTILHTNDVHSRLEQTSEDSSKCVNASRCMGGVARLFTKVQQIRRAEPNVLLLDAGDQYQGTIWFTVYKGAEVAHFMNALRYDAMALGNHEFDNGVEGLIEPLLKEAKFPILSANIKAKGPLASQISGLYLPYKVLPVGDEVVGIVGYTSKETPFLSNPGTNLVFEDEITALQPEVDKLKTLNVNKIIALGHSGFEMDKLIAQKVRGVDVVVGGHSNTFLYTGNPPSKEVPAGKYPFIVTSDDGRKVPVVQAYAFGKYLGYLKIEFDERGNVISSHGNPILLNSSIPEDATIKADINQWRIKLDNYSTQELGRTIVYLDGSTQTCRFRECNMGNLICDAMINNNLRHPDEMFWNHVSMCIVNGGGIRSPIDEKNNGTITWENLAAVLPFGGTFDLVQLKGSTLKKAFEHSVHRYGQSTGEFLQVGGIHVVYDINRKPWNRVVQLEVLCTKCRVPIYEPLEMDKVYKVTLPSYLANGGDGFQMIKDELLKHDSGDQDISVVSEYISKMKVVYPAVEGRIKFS
Molecule,binding result [5],Kd [6],"AMP concentration in supernatant by LC/MS, MDA-MB-231 cells, 400 µM AMP, 10 nM antibody, 6 hours [7]","AMP concentration in supernatant by LC/MS, MDA-MB-231 cells, 400 µM AMP, 10 nM antibody, 24 hours [7]","AMP consumption, Calu-1 cells, 10 nM antibody, 24 hrs [7]","AMP consumption, MDA-MB-231 cells, 10 nM antibody, 6 hr [7]","AMP consumption, MDA-MB-231 cells, 10 nM antibody, 24 h [7]","CFSE left-shift level of CD3/CD28-activated CD4+ T-cells with 400 µM AMP, 10 nM antibody [7]",further results
Oleclumab (antibody),–,–,–,–,–,–,–,–,EC50 (read off the curve) [1]: 100 pM; EC50 (read off the curve) [2]: 100 pM; EC50 (read off the curve) [3]: 100 pM; EC50 (read off the curve) [4]: 100 pM
"10H5-CDRH1N35A (antibody, V domains shown, Alanine mutant of 10H5; printed '10H5-CDRHIN35A'; also called 10H5-CDRHIN35A) VH: QVKLQQSGAELVKPGASVKISCKASGYVFSSYWIAWVKQRPGKGLEWIGQIYPGDGNTNYNRNFKGKATLTADKSSSTAYMQLSSLTSEDSAVYFCAGFADWGQGTTVTVSS VL: DIELTQSPSSLSASLGERVSLTCRASQDIGDSLIWLQQEPDGTIKRLIYATSSLDSGVPKRFSGSRSGTSYSLTISSVEAEDAATYYCQQYSGYPLTFGSGTKLEIK",no binding (tested: about 5e-8 M),–,–,–,–,–,–,–,–
"10H5-CDRH1W33A (antibody, V domains shown, Alanine mutant of 10H5) VH: QVKLQQSGAELVKPGASVKISCKASGYVFSSYAINWVKQRPGKGLEWIGQIYPGDGNTNYNRNFKGKATLTADKSSSTAYMQLSSLTSEDSAVYFCAGFADWGQGTTVTVSS VL: DIELTQSPSSLSASLGERVSLTCRASQDIGDSLIWLQQEPDGTIKRLIYATSSLDSGVPKRFSGSRSGTSYSLTISSVEAEDAATYYCQQYSGYPLTFGSGTKLEIK",no binding (tested: about 5e-8 M),–,–,–,–,–,–,–,–
"10H5-CDRH3F95A (antibody, V domains shown, Alanine mutant of 10H5) VH: QVKLQQSGAELVKPGASVKISCKASGYVFSSYWINWVKQRPGKGLEWIGQIYPGDGNTNYNRNFKGKATLTADKSSSTAYMQLSSLTSEDSAVYFCAGAADWGQGTTVTVSS VL: DIELTQSPSSLSASLGERVSLTCRASQDIGDSLIWLQQEPDGTIKRLIYATSSLDSGVPKRFSGSRSGTSYSLTISSVEAEDAATYYCQQYSGYPLTFGSGTKLEIK",no binding (tested: about 5e-8 M),–,–,–,–,–,–,–,–
"10H5-CDRL3Y91A (antibody, V domains shown, Alanine mutant of 10H5) VH: QVKLQQSGAELVKPGASVKISCKASGYVFSSYWINWVKQRPGKGLEWIGQIYPGDGNTNYNRNFKGKATLTADKSSSTAYMQLSSLTSEDSAVYFCAGFADWGQGTTVTVSS VL: DIELTQSPSSLSASLGERVSLTCRASQDIGDSLIWLQQEPDGTIKRLIYATSSLDSGVPKRFSGSRSGTSYSLTISSVEAEDAATYYCQQASGYPLTFGSGTKLEIK",no binding (tested: about 5e-8 M),–,–,–,–,–,–,–,–
"HuB10/HdB7 (antibody, V domains shown, Humanized 10H5; also called HuVHB10/HdVLB7; humanized 10H5 derivative) VH: QVQLVQSGAEVKKPGASVKVSCKASGYVFSSYWINWVRQAPGQGLEWMGQIYPGDGNTNYNRNFKGRVTLTADKSTSTAYMELSSLRSEDTAVYYCAGFADWGQGTLVTVSS VL: DIQLTQSPSSLSASVGDRVTITCRASQDIGDSLIWLQQKPGKAPKRLIYATSSLDSGVPSRFSGSRSGTDYTLTISSLQPEDFATYYCQQYSGYPLTFGQGTKVEIK",–,678 pM,331 µM,287 µM,< 20%,< 10%,< 50%,83.4%,koff [8]: 6.54e-05 s⁻¹; kon [8]: 96400 M⁻¹ s⁻¹
"HuB10/HdB6 (antibody, V domains shown, Humanized 10H5; also called HuVHB10/HdVLB6; humanized 10H5 derivative) VH: QVQLVQSGAEVKKPGASVKVSCKASGYVFSSYWINWVRQAPGQGLEWMGQIYPGDGNTNYNRNFKGRVTLTADKSTSTAYMELSSLRSEDTAVYYCAGFADWGQGTLVTVSS VL: DIQLTQSPSSLSASVGDRVTITCRASQDIGDSLIWLQQKPGKAIKRLIYATSSLDSGVPSRFSGSRSGTDYTLTISSVQPEDFATYYCQQYSGYPLTFGQGTKVEIK",–,803 pM,336 µM,286 µM,< 20%,< 10%,< 50%,83.7%,koff [9]: 6.57e-05 s⁻¹; kon [9]: 81800 M⁻¹ s⁻¹
"HuB9/HdB7 (antibody, V domains shown, Humanized 10H5; also called HuVHB9/HdVLB7; humanized 10H5 derivative) VH: QVQLVQSGAEVKKPGASVKVSCKASGYVFSSYWINWVRQAPGQGLEWMGQIYPGDGNTNYNRNFKGRATLTADKSTSTAYMELSSLRSEDTAVYFCAGFADWGQGTLVTVSS VL: DIQLTQSPSSLSASVGDRVTITCRASQDIGDSLIWLQQKPGKAPKRLIYATSSLDSGVPSRFSGSRSGTDYTLTISSLQPEDFATYYCQQYSGYPLTFGQGTKVEIK",–,623 pM,345 µM,298 µM,< 20%,< 10%,< 50%,83.5%,koff [10]: 6.36e-05 s⁻¹; kon [10]: 102000 M⁻¹ s⁻¹
"Oleclumab (antibody, V domains shown) VH: EVQLLESGGGLVQPGGSLRLSCAASGFTFSSYAYSWVRQAPGKGLEWVSAISGSGGRTYYADSVKGRFTISRDNSKNTLYLQMNSLRAEDTAVYYCARLGYGRVDEWGRGTLVTVSS VL: QSVLTQPPSASGTPGQRVTISCSGSLSNIGRNPVNWYQQLPGTAPKLLIYLDNLRLSGVPDRFSGSKSGTSASLAISGLQSEDEADYYCATWDDSHPGWTFGGGTKLTVL",–,–,–,–,–,–,–,–,"AMP concentration in supernatant by LC/MS, MDA-MB-231 cells, 400 µM AMP, 10 nM antibody, 6 hours [11]: 324 µM; AMP concentration in supernatant by LC/MS, MDA-MB-231 cells, 400 µM AMP, 10 nM antibody, 24 hours [11]: 147 µM; AMP consumption, Calu-1 cells, 10 nM antibody, 24 hrs [11]: > 90%; AMP consumption, MDA-MB-231 cells, 10 nM antibody, 6 hr [11]: < 20%; AMP consumption, MDA-MB-231 cells, 10 nM antibody, 24 h [11]: > 90%; CFSE left-shift level of CD3/CD28-activated CD4+ T-cells with 400 µM AMP, 10 nM antibody, 3 days [11]: 72.9%; EC50 (read off the curve) [12]: ~100 pM; EC50 (read off the curve) [13]: ~100 pM; EC50 (read off the curve) [5]: ~100 pM"
